Sequences and labels used below:
B1: humanized BR2-14a antibody HALA (antibody, V domains shown)
VH: QVQLVQSGAEVKKPGASVKVSCKASGYTFTDYYMHWVRQAPGQGLEWMGWIDPENGDTEYAPTFQGRVTMTRDTSISTAYMELSRLRSDDTAVYYCARHDAHYGTWFAYWGQGTLVTVSS
VL: DVVMTQSPLSLPVTLGQPASISCRSSQSIIRNDGNTYLEWFQQRPGQSPRRLIYRVSNRFSGVPDRFSGSGSGTDFTLKISRVEAEDVGVYYCFQGSHVPYTFGGGTKVEIKR
notes: also called hLIV-1 HA + hLIV-1 LA
B2: humanized BR2-14a antibody HDLB (antibody, V domains shown)
VH: QVQLVQSGAEVKKPGASVKVSCKASGFTFTDYYMHWVRQAPGQGLEWMGWIDPENGDTEYAPTFQGRVTMTRDTSISTAYMELSRLRSDDTAVYYCNVHDAHYGTWFAYWGQGTLVTVSS
VL: DVVMTQSPLSLPVTLGQPASISCRSSQSIIRNDGNTYLEWYQQRPGQSPRRLIYRVSNRFSGVPDRFSGSGSGTDFTLKISRVEAEDVGVYYCFQGSHVPYTFGGGTKVEIKR
notes: also called hLIV-1 HD + hLIV-1 LB
B3: humanized BR2-14a antibody HDLF (antibody, V domains shown)
VH: QVQLVQSGAEVKKPGASVKVSCKASGFTFTDYYMHWVRQAPGQGLEWMGWIDPENGDTEYAPTFQGRVTMTRDTSISTAYMELSRLRSDDTAVYYCNVHDAHYGTWFAYWGQGTLVTVSS
VL: DVVMTQSPLSLPVTLGQPASISCRSSQSIIRNDGNTYLEWYLQKPGQSPKLLIYRVSNRFSGVPDRFSGSGSGTDFTLKISRVEAEDVGVYYCFQGSHVPYTFGGGTKVEIKR
notes: also called hLIV-1 HD + hLIV-1 LF
B4: humanized BR2-14a antibody HCLD (antibody, V domains shown)
VH: QVQLVQSGAEVKKPGASVKVSCKASGYTFTDYYMHWVRQAPGQGLEWMGWIDPENGDTEYAPTFQGKATMTADTSISTAYMELSRLRSDDTAVYYCARHDAHYGTWFAYWGQGTLVTVSS
VL: DVVMTQSPLSLPVTLGQPASISCRSSQSIIRNDGNTYLEWFQQRPGQSPKRLIYRVSNRFSGVPDRFSGSGSGTDFTLKISRVEAEDVGVYYCFQGSHVPYTFGGGTKVEIKR
notes: also called hLIV-1 HC + hLIV-1 LD
B5: humanized BR2-14a antibody HELA (antibody, V domains shown)
VH: QVQLVQSGAEVKKPGASVKVSCKASGFNIEDYYMHWVRQAPGQGLEWIGWIDPENGDTEYAPTFQGKATMTADTSINTAYMELSRLRSDDTAVYYCNVHDAHYGTWFAYWGQGTLVTVSS
VL: DVVMTQSPLSLPVTLGQPASISCRSSQSIIRNDGNTYLEWFQQRPGQSPRRLIYRVSNRFSGVPDRFSGSGSGTDFTLKISRVEAEDVGVYYCFQGSHVPYTFGGGTKVEIKR
notes: also called hLIV-1 HE + hLIV-1 LA
B6: humanized BR2-14a antibody HBLF (antibody, V domains shown)
VH: QVQLVQSGAEVKKPGASVKVSCKASGYTIEDYYMHWVRQAPGQGLEWMGWIDPENGDTEYAPTFQGRVTMTRDTSINTAYMELSRLRSDDTAVYYCARHDAHYGTWFAYWGQGTLVTVSS
VL: DVVMTQSPLSLPVTLGQPASISCRSSQSIIRNDGNTYLEWYLQKPGQSPKLLIYRVSNRFSGVPDRFSGSGSGTDFTLKISRVEAEDVGVYYCFQGSHVPYTFGGGTKVEIKR
notes: also called hLIV-1 HB + hLIV-1 LF
B7: humanized BR2-14a antibody HCLB (antibody, V domains shown)
VH: QVQLVQSGAEVKKPGASVKVSCKASGYTFTDYYMHWVRQAPGQGLEWMGWIDPENGDTEYAPTFQGKATMTADTSISTAYMELSRLRSDDTAVYYCARHDAHYGTWFAYWGQGTLVTVSS
VL: DVVMTQSPLSLPVTLGQPASISCRSSQSIIRNDGNTYLEWYQQRPGQSPRRLIYRVSNRFSGVPDRFSGSGSGTDFTLKISRVEAEDVGVYYCFQGSHVPYTFGGGTKVEIKR
notes: also called hLIV-1 HC + hLIV-1 LB
B8: humanized BR2-14a antibody HBLD (antibody, V domains shown)
VH: QVQLVQSGAEVKKPGASVKVSCKASGYTIEDYYMHWVRQAPGQGLEWMGWIDPENGDTEYAPTFQGRVTMTRDTSINTAYMELSRLRSDDTAVYYCARHDAHYGTWFAYWGQGTLVTVSS
VL: DVVMTQSPLSLPVTLGQPASISCRSSQSIIRNDGNTYLEWFQQRPGQSPKRLIYRVSNRFSGVPDRFSGSGSGTDFTLKISRVEAEDVGVYYCFQGSHVPYTFGGGTKVEIKR
notes: also called hLIV-1 HB + hLIV-1 LD
B9: humanized BR2-14a antibody HALF (antibody, V domains shown)
VH: QVQLVQSGAEVKKPGASVKVSCKASGYTFTDYYMHWVRQAPGQGLEWMGWIDPENGDTEYAPTFQGRVTMTRDTSISTAYMELSRLRSDDTAVYYCARHDAHYGTWFAYWGQGTLVTVSS
VL: DVVMTQSPLSLPVTLGQPASISCRSSQSIIRNDGNTYLEWYLQKPGQSPKLLIYRVSNRFSGVPDRFSGSGSGTDFTLKISRVEAEDVGVYYCFQGSHVPYTFGGGTKVEIKR
notes: also called hLIV-1 HA + hLIV-1 LF
B10: humanized BR2-14a antibody HCLF (antibody, V domains shown)
VH: QVQLVQSGAEVKKPGASVKVSCKASGYTFTDYYMHWVRQAPGQGLEWMGWIDPENGDTEYAPTFQGKATMTADTSISTAYMELSRLRSDDTAVYYCARHDAHYGTWFAYWGQGTLVTVSS
VL: DVVMTQSPLSLPVTLGQPASISCRSSQSIIRNDGNTYLEWYLQKPGQSPKLLIYRVSNRFSGVPDRFSGSGSGTDFTLKISRVEAEDVGVYYCFQGSHVPYTFGGGTKVEIKR
notes: also called hLIV-1 HC + hLIV-1 LF
B11: humanized BR2-14a antibody HBLC (antibody, V domains shown)
VH: QVQLVQSGAEVKKPGASVKVSCKASGYTIEDYYMHWVRQAPGQGLEWMGWIDPENGDTEYAPTFQGRVTMTRDTSINTAYMELSRLRSDDTAVYYCARHDAHYGTWFAYWGQGTLVTVSS
VL: DVVMTQSPLSLPVTLGQPASISCRSSQSIIRNDGNTYLEWFLQRPGQSPRRLIYRVSNRFSGVPDRFSGSGSGTDFTLKISRVEAEDVGVYYCFQGSHVPYTFGGGTKVEIKR
notes: also called hLIV-1 HB + hLIV-1 LC
B12: humanized BR2-14a antibody HDLD (antibody, V domains shown)
VH: QVQLVQSGAEVKKPGASVKVSCKASGFTFTDYYMHWVRQAPGQGLEWMGWIDPENGDTEYAPTFQGRVTMTRDTSISTAYMELSRLRSDDTAVYYCNVHDAHYGTWFAYWGQGTLVTVSS
VL: DVVMTQSPLSLPVTLGQPASISCRSSQSIIRNDGNTYLEWFQQRPGQSPKRLIYRVSNRFSGVPDRFSGSGSGTDFTLKISRVEAEDVGVYYCFQGSHVPYTFGGGTKVEIKR
notes: also called hLIV-1 HD + hLIV-1 LD
B13: humanized BR2-14a antibody HBLA (antibody, V domains shown)
VH: QVQLVQSGAEVKKPGASVKVSCKASGYTIEDYYMHWVRQAPGQGLEWMGWIDPENGDTEYAPTFQGRVTMTRDTSINTAYMELSRLRSDDTAVYYCARHDAHYGTWFAYWGQGTLVTVSS
VL: DVVMTQSPLSLPVTLGQPASISCRSSQSIIRNDGNTYLEWFQQRPGQSPRRLIYRVSNRFSGVPDRFSGSGSGTDFTLKISRVEAEDVGVYYCFQGSHVPYTFGGGTKVEIKR
notes: also called hLIV-1 HB + hLIV-1 LA
B14: humanized BR2-14a antibody HELB (antibody, V domains shown)
VH: QVQLVQSGAEVKKPGASVKVSCKASGFNIEDYYMHWVRQAPGQGLEWIGWIDPENGDTEYAPTFQGKATMTADTSINTAYMELSRLRSDDTAVYYCNVHDAHYGTWFAYWGQGTLVTVSS
VL: DVVMTQSPLSLPVTLGQPASISCRSSQSIIRNDGNTYLEWYQQRPGQSPRRLIYRVSNRFSGVPDRFSGSGSGTDFTLKISRVEAEDVGVYYCFQGSHVPYTFGGGTKVEIKR
notes: also called hLIV-1 HE + hLIV-1 LB
B15: humanized BR2-14a antibody HALC (antibody, V domains shown)
VH: QVQLVQSGAEVKKPGASVKVSCKASGYTFTDYYMHWVRQAPGQGLEWMGWIDPENGDTEYAPTFQGRVTMTRDTSISTAYMELSRLRSDDTAVYYCARHDAHYGTWFAYWGQGTLVTVSS
VL: DVVMTQSPLSLPVTLGQPASISCRSSQSIIRNDGNTYLEWFLQRPGQSPRRLIYRVSNRFSGVPDRFSGSGSGTDFTLKISRVEAEDVGVYYCFQGSHVPYTFGGGTKVEIKR
notes: also called hLIV-1 HA + hLIV-1 LC
B16: humanized BR2-14a antibody HALB (antibody, V domains shown)
VH: QVQLVQSGAEVKKPGASVKVSCKASGYTFTDYYMHWVRQAPGQGLEWMGWIDPENGDTEYAPTFQGRVTMTRDTSISTAYMELSRLRSDDTAVYYCARHDAHYGTWFAYWGQGTLVTVSS
VL: DVVMTQSPLSLPVTLGQPASISCRSSQSIIRNDGNTYLEWYQQRPGQSPRRLIYRVSNRFSGVPDRFSGSGSGTDFTLKISRVEAEDVGVYYCFQGSHVPYTFGGGTKVEIKR
notes: also called hLIV-1 HA + hLIV-1 LB
B17: humanized BR2-14a antibody HALE (antibody, V domains shown)
VH: QVQLVQSGAEVKKPGASVKVSCKASGYTFTDYYMHWVRQAPGQGLEWMGWIDPENGDTEYAPTFQGRVTMTRDTSISTAYMELSRLRSDDTAVYYCARHDAHYGTWFAYWGQGTLVTVSS
VL: DVVMTQSPLSLPVTLGQPASISCRSSQSIIRNDGNTYLEWFQQRPGQSPRLLIYRVSNRFSGVPDRFSGSGSGTDFTLKISRVEAEDVGVYYCFQGSHVPYTFGGGTKVEIKR
notes: also called hLIV-1 HA + hLIV-1 LE
B18: humanized BR2-14a antibody HALD (antibody, V domains shown)
VH: QVQLVQSGAEVKKPGASVKVSCKASGYTFTDYYMHWVRQAPGQGLEWMGWIDPENGDTEYAPTFQGRVTMTRDTSISTAYMELSRLRSDDTAVYYCARHDAHYGTWFAYWGQGTLVTVSS
VL: DVVMTQSPLSLPVTLGQPASISCRSSQSIIRNDGNTYLEWFQQRPGQSPKRLIYRVSNRFSGVPDRFSGSGSGTDFTLKISRVEAEDVGVYYCFQGSHVPYTFGGGTKVEIKR
notes: also called hLIV-1 HA + hLIV-1 LD

The target of this assay is T1, human LIV-1 (human, UniProt Q13433 29-755).
T1 construct: also called hLIV-1; Q13433
T1 sequence: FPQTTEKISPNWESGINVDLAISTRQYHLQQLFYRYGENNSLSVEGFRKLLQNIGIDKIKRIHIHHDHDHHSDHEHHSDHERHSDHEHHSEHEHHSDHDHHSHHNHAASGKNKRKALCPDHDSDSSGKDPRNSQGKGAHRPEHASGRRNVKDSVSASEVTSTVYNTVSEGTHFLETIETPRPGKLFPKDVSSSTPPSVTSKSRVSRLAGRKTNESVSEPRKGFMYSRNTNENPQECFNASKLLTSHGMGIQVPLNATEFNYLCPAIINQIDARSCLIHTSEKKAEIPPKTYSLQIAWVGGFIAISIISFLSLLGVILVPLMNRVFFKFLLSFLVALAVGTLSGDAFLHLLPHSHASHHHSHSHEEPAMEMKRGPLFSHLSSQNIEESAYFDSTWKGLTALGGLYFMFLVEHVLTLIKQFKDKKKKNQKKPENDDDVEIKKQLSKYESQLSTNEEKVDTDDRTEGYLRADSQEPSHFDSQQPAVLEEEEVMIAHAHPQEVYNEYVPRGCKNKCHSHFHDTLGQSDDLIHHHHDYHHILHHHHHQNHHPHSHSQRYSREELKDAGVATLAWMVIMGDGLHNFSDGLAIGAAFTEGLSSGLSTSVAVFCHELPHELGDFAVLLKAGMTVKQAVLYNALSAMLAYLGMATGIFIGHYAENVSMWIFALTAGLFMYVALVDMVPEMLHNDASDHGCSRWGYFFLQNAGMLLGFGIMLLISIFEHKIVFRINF
Briefly: competition flow cytometry, CHO cells expressing human LIV-1, vs 5 nM AF647-labelled BR2-14a. How it is done:
1×10⁵ CHO cells expressing recombinant human LIV-1 in PBS/BSA were aliquoted into each well of a 96-well v-bottom plates on ice. […] Cells were pelleted and washed 3 times with PBS/BSA. The cells were pelleted and resuspended in 125 μL of PBS/BSA. Fluorescence was analyzed by flow cytometry, using percent of saturated fluorescent signal to determine percent labeled murine LIV-1 mAb bound and to subsequently extrapolate the EC50 by fitting the data to a sigmoidal dose-response curve with variable slope.
On the technique in general: Flow cytometry measures light scatter and fluorescence of single cells or particles in a stream.
For the molecule B1, the binding result was “no binding (tested: 0.038 nM to 600 nM tested)”.

Turning to B2, the EC50 (in general, the midpoint of the concentration-response curve) is 2.3 mg/L.

As to B3, the EC50 is 1.4 mg/L.

Regarding B4, the EC50 was found to be 66.6 mg/L.

The molecule B5 yielded an EC50 of 12.5 mg/L.

Molecule B6 gave an EC50 of 0.7 mg/L.

As to B7, the EC50 came out at 1.8 mg/L.

In the case of B8, the EC50 was found to be 17.4 mg/L.

The molecule B9 displayed an EC50 of 8.8 mg/L.

Take B10: a half-maximal effect (EC50) was put at 1.3 mg/L.

Consider B11, for which the EC50 stood at 44 mg/L.

On to B12, for which the EC50 amounted to 67.9 mg/L.

For B13, the EC50 worked out at 19.9 mg/L.

In turn, B14 came in with an EC50 of 173 mg/L.

Regarding B15, the midpoint of the response, the EC50, lay at 25.5 mg/L.

For the molecule B16, the EC50 is 37.8 mg/L.

For the molecule B17, the binding result was “no binding (tested: 0.038 nM to 600 nM tested)”.

Molecule B18 had an EC50 of 4.9 mg/L.

For the origin of these results see patent US20200165335A1 (Seagen, published 2020).
